Laboratory results taken from patent publication US20170334973A1 (INTEGRATED BIOTHERAPEUTICS, published 2017).
Residue numbers refer to the chain shown, from its start.

B1: FVM03 (antibody, V domains shown)
VH: QVQLQESGPVLVKPSETLSLTCAVSGYSISSAYAWSWIRQPPGKGLEWVGYVGSSSDYNPSLKSRVTISRDTSKNRIFLNLRSLTAADTAVYYCARDRANNSMDVWGRGVLVTVSS
VL: EIVLTQSPDSLGVSLGERVTINCKSSQSLLYSSNNKNYLAWYQQKPGQAPKLLIYWASTRESGVPNRFSGSGSGTDFTLTISGLQAEDVAVYYCQQYYSTPLTFGQGTKVEIKR
B2: FVM02P (antibody, V domains shown)
VH: EVQLVESGGGLVQPGGSLRLSCAASGFTGFTFSDYAFYWVRQAPGKGLEWVGFIRGKAYGGTADYAASVKGRFTISRDNSKNTAYLQMSSLKTEDSAVYYCTSQGVTVATPYHWGQGVLVTVSS
VL: DIVLTQSPLSLPVTPGEPASISCRSSQSLLHSGGKTYLYWYLQKPGQSPQLLIHEVSNRASGVPDRFSGSGSGTDFTLKISRVEAEDVGVYYCMQGIQLPLTFGGGTKVEIKR
B3: FVM19 (antibody, V domains shown)
VH: QVQLVQSGAEVKRPGESLTISCKTSGYSFTDSWVAWVRQMPGKGLEWLGSIYPGDSDTKYNPSFQGHVTISADKSVTTTYLKWSSLKASDTATYYCVKGSETWGQGVLVTVSS
VL: KPMLTQPASLSASPGASASLTCTFSGGINVAGYHIFWYQQKPGSPPRYLLRYKSDSDKGQGSGVPSRFSGSKDASANTGILRISGLQSEDEADYYCAIGHSSGLLFGGGTRLTVL
B4: FVM23 (antibody, V domains shown)
VH: B3 VH with D31G, V34I, A35S, L48M, K59T, V76I, T77S, T79A, K82Q, S84T
VL: B3 VL with K1S, P2Y, M3E, H34N, F36L, P42A, D57T, G59D, L105I, G108A
B5: FVM21 (antibody, V domains shown)
VH: EVQLVESGAEVKRPGESLTISCKTSGYSFTDSWVAWVRQMPGKGLEWLGSIYPGDSETKYNPSFQGHVTISADKSISTTYLQWSSLRASDTATYYCVKGADDWGPGLLVTVSS
VL: B3 VL with K1S, P2S, M3E, H34N, F36L, P42A, L104W, L105I
B6: FVM32 (antibody, V domains shown)
VH: B3 VH with T19R, K59R, N61S, H67Q, V76I, T79A
VL: QPVLTQPASLSASPGASASLTCTFNGGITVPGYDILWYQQKSGSPPRYLLRYKSDSTKDQGSGVPSRFSGSKDASTNTGILRISGLQSEDEADYYCAIGHSSGWIFGGGTRLTVL
B7: FVM25 (antibody, V domains shown)
VH: EVQLVHSGAEVKRPGESLTISCKTSGYTFTDYWIAWVRQMPGKGLEWMASIYPDDSDTRYNPSFQGHVTISADKSISTTYLQWSSLRASDTATYYCVKGSETWGQGVLVTVSS
VL: QLVLTQPASLSASPGTSASLTCTFSGGINVAGYNILWYQQKPGSPPRFLLRYKSDSDNVQGSGVPSHFSGSKDASTNTGILRISGLQSEDEADYYCAIGHSSGWVFGGGTRLTVL
B8: FVM28 (antibody, V domains shown)
VH: EVQLVQSGAEVKRPGESLKISCQTSGYRFTSSWISWVRQMPGKGLEWMGAIDPSDSETRYSPSFQGQVTISADKSISTAYLKWSSLKASDTATYYCVKGSETWGQGVLVTVSS
VL: QAALTQPASLSASPGASASLTCTFSGGINVAGYHILWYQQKPGSPPRYLLRYKSDSEKDQGSGVPSRFSGSKDASANRGILRISGLQSEDEADYYCAIGHSSSGWVFGGGTRLTVL
B9: FVM24 (antibody, V domains shown)
VH: EVQLVQSGAEVKRPGESLKISCKTSGYSFTDSWVAWVRQMPGKGLEWMGSIYPGDFQTRYNPSFQGHVTLSADKSISTTYLQWSSLKASDTATYYCVKGSETWGPGVLVTVSS
VL: SSGLTQPASLSASPGASASLTCTFSGGINVAGYNILWYQQKAGSPPRYLLRYKSDSTKDQGSGVPSRFSGSKDVSANTGILRISGLQSDDEADYYCAIGHSSGWIFGGGTRLTVL

Target: T1, MARV GPddmuc (Marburg virus (MARV), UniProt P35253 19-648)
Assay: ELISA

Row | Binder | EC50 [nM]
1 | B1 | 0.306
2 | B2 | > 10

Target: T2, EBOV GPddmuc (Ebola virus (EBOV), UniProt Q05320 33-650)
Assay: ELISA

Row | Binder | EC50 [nM]
3 | B3 | 0.12
4 | B4 | 0.087
5 | B5 | 0.067
6 | B6 | 0.073
7 | B7 | 0.12
8 | B2 | 0.127
9 | B8 | 0.047
10 | B9 | 0.153

Target: T3, SUDV GPddmuc (Sudan virus (SUDV), UniProt Q66814 33-650)
Assay: ELISA

Row | Binder | EC50 [nM]
11 | B3 | 0.267
12 | B4 | 0.08
13 | B5 | 0.067
14 | B6 | 0.127
15 | B7 | 0.18
16 | B2 | 0.158
17 | B8 | 0.047
18 | B9 | 0.12

Target: T1, MARV GPddmuc
Assay: native ELISA

Row | Binder | binding result
19 | B3 | no binding
20 | B4 | no binding
21 | B5 | no binding
22 | B6 | no binding
23 | B7 | no binding
24 | B8 | no binding
25 | B9 | no binding

Target: T2, EBOV GPddmuc
Assay: native ELISA

Row | Binder | binding result
26 | B1 | no binding

Target: T3, SUDV GPddmuc
Assay: native ELISA

Row | Binder | binding result
27 | B1 | no binding
